According to patent publication US20240124607A1 (Merck Sharp & Dohme, published 2024):
Substitutions are numbered along the chain they refer to. Each block holds one binder with its values, some of them ahead of it.

Columns and labels:
Human CEACAM1 = biological target: T1, Human CEACAM1 (human, UniProt P13688 35-428, limits assumed); test: SPR, 37C, pH 7.4
T1 sequence (looked up): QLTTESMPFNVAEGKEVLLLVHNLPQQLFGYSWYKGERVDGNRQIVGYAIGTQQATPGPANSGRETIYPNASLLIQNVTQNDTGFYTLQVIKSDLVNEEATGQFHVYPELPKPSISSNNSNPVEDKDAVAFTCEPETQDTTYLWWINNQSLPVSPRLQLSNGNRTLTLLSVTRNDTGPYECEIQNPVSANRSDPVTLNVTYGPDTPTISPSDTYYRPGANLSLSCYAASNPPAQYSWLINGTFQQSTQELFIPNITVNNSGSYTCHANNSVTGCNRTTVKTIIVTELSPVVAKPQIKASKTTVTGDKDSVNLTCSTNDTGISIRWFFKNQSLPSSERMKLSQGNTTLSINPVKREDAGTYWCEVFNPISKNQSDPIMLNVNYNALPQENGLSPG
Description: (§1) To determine the affinity and cross-reactivity of CEACAM5 TriNKET molecules, AB0411, AB0466, or AB0621 TriNKETs were captured using an anti-human Fc capture antibody (Cytiva, #BR100839) immobilized onto a Biacore CM5 standard surface sensor chip following manufacturer instructions. Human or cynomolgus CEACAM5 were titrated over captured AB0411, AB0466, and AB0621 as 2-fold serial dilutions starting from 300 nM. Association was monitored for 300 sec and dissociation was monitored for 600 sec. The assay was run at 37° C. at pH 7.4 and 6.0. The surface of the CM5 chip was regenerated with 10 mM glycine pH 1.5 for 20 sec at 100 μL/min.
Binding to human and cynomolgus CEACAM1, 6, and 8 was assessed by SPR using the same protocol as for CEACAM5 but using up to 600 and 1200 nM for titration of each protein. There were no detectable binding signals at these concentrations for AB0621. In contrast, reproducible weak binding signals were detected for AB0411 and AB0466, but these two TriNKETs also bound to different epitope(s) on the N-terminus of CEACAM5. Typical weak binding sensorgrams for AB0411 and AB0466 against human CEACAM1 and 6 indicated weak but notable signals compared to AB0621. […]

Human FcRn = Human FcRn (human, UniProt P55899 24-297; P61769 21-119, limits assumed); test: SPR, anti-kappa capture, 25C, pH 6.0; pH 6.0
Description: (§2) Anti-kappa light chain antibody was immobilized onto a CM5 chip following a standard amine-coupling protocol. AB0621 was captured onto the chip and human or cynomolgus FcRn was titrated from 2000 nM as 2-fold serial dilutions. Association was monitored for 120 sec and dissociation was monitored for 180 sec. Assays were run at 25° C. at both pH 7.4 and pH 6.0. The surface of the chip was regenerated with two pulses of 10 mM glycine pH 1.5 for 20 sec at 30 μL/min followed by 10 mM NaOH for 20 sec at 30 μL/min.

Cyno FcRn = Cyno FcRn (cynomolgus monkey, UniProt Q8SPV9 24-297; Q8SPW0 21-119, limits assumed); test: SPR, anti-kappa capture, 25C, pH 6.0; pH 6.0
Description: as §2

human FcγRIIA R131 = biological target: T2, human FcγRIIA R131 (human, UniProt P12318 34-218, limits assumed); test: SPR, AB0621 on Protein A chip, 25C, pH 7.4; reference not named
T2 sequence (looked up): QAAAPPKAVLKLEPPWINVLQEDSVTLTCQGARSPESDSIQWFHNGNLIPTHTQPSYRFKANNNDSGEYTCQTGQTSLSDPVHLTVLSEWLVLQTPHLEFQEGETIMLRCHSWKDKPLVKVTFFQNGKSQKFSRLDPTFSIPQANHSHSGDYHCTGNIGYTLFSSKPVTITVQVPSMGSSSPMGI
Description: (§3) AB0621 was captured onto a Protein A chip (Cytiva, #29127556). Human FcγRs were titrated over captured AB0621 as 3-fold serial dilutions starting from 300 nM for FcγRI, 1000 nM for FcγRIIA R131 and H131, and 3000 nM for FcγRIIB and FcγRIIIB. Association was monitored for 120 sec and dissociation was monitored for 180 sec. Assays were run at 25° C. at pH 7.4. The surface of the chip was regenerated with 10 mM glycine pH 1.5 for 20 sec at 30 μL/min.

human FcγRIIA H131 = biological target: T3, human FcγRIIA H131 (human, UniProt P12318 34-218, limits assumed); test: as above
T3 sequence (looked up): T2 sequence (looked up) with R134H
Description: as §3

human FcγRI = human FcγRI (human, UniProt P12314 16-288, limits assumed); test: as above
Description: as §3

human FcγRIIB = biological target: T4, human FcγRIIB (human, UniProt P31994 43-217, limits assumed); test: as above
T4 sequence (looked up): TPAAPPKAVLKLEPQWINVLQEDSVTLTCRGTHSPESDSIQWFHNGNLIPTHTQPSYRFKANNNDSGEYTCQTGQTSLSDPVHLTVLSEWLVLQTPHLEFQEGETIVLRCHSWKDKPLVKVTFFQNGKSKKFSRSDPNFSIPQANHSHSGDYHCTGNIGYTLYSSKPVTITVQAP
Description: as §3

Cynomolgus CEACAM5 = biological target: T5, Cynomolgus CEACAM5 (cynomolgus monkey); test: SPR, anti-hFc capture, 37C, pH 6.0
T5 construct: also called cyno CEACAM5
Description: as §1

Human CEACAM8 = biological target: T6, Human CEACAM8 (human, UniProt P31997 35-320, limits assumed); test: SPR, 37C, pH 7.4
T6 sequence (looked up): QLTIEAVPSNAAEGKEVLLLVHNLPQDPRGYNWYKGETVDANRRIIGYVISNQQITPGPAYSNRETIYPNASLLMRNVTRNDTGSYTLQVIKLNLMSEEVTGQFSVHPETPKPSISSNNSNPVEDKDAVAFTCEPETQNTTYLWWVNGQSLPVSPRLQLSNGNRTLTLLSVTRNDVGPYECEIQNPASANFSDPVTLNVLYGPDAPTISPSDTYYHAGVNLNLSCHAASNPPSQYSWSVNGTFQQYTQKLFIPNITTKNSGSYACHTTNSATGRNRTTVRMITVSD

Sequence of human FcγRI (P12314 16-288 limits assumed): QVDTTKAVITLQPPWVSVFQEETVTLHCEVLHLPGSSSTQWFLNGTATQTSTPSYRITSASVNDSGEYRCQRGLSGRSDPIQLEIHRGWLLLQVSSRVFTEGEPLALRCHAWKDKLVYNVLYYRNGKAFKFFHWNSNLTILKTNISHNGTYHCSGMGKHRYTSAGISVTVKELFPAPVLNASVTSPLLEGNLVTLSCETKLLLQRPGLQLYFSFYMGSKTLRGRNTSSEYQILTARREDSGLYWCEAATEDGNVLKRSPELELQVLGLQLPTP
Sequence of Cyno FcRn (Q8SPV9 24-297 limits assumed, chain 1 of 2): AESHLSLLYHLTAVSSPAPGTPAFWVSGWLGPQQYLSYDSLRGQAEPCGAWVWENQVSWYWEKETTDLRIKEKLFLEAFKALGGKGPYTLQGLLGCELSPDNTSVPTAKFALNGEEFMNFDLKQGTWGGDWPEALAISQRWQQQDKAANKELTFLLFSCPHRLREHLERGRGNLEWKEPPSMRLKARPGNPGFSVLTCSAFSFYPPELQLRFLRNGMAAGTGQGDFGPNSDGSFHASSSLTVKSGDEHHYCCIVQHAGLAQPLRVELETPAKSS
Sequence of Cyno FcRn (Q8SPW0 21-119 limits assumed, chain 2 of 2): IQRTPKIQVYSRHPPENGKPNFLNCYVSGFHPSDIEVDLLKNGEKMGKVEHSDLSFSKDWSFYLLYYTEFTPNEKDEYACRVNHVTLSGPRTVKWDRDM

Kd (Human FcRn): 440 nM
Kd (Cyno FcRn): 310 nM
KD/KD ref (human FcγRIIA R131): 0.68 fold
KD/KD ref (human FcγRIIA H131): 0.68 fold
KD/KD ref (human FcγRI): 0.64 fold
KD/KD ref (human FcγRIIB): 0.94 fold
Kd (Cynomolgus CEACAM5): 6.5 nM
kon (Cynomolgus CEACAM5): 130000 M⁻¹ s⁻¹
B1: AB0621 F3' CEACAM5 TriNKET (bispecific antibody, human IgG1, kappa)
chain: DIVMTQSPDSLAVSLGERATINCKSSHSLLYGNFQNNYLAWYQQKPGQPPKLLIYWASTRESGVPDRFSGSGSGTDFTLTISSLQAEDVAVYYCQQYYSYPYTFGCGTKLEIKGGGGSGGGGSGGGGSGGGGSQVQLVQSGAEVKKPGASVKVSCKASGYTFTAYTIHWVRQAPGQCLEWMGYINPSSGYTEYNQKFKDRTTLTADTSISTAYMELSRLRSDDTAVYYCTREGGLLWFDYWGQGTLVTVSSGSDKTHTCPPCPAPELLGGPSVFLFPPKPKDTLMISRTPEVTCVVVDVSHEDPEVKFNWYVDGVEVHNAKTKPREEQYNSTYRVVSVLTVLHQDWLNGKEYKCKVSNKALPAPIEKTISKAKGQPREPRVYTLPPCRDELTKNQVSLTCLVKGFYPSDIAVEWESNGQPENNYKTTPPVLVSDGSFTLYSKLTVDKSRWQQGNVFSCSVMHEALHNHYTQKSLSLSPG
heavy: EVQLVESGGGLVKPGGSLRLSCAASGFTFSSYSMNWVRQAPGKGLEWVSSISSSSSYIYYADSVKGRFTISRDNAKNSLYLQMNSLRAEDTAVYYCARGAPIGAAAGWFDPWGQGTLVTVSSASTKGPSVFPLAPSSKSTSGGTAALGCLVKDYFPEPVTVSWNSGALTSGVHTFPAVLQSSGLYSLSSVVTVPSSSLGTQTYICNVNHKPSNTKVDKKVEPKSCDKTHTCPPCPAPELLGGPSVFLFPPKPKDTLMISRTPEVTCVVVDVSHEDPEVKFNWYVDGVEVHNAKTKPREEQYNSTYRVVSVLTVLHQDWLNGKEYKCKVSNKALPAPIEKTISKAKGQPREPQVCTLPPSRDELTENQVSLTCLVKGFYPSDIAVEWESNGQPENNYKTTPPVLDSDGSFFLYSWLTVDKSRWQQGNVFSCSVMHEALHNHYTQKSLSLSPG
light: DIQMTQSPSSVSASVGDRVTITCRASQGISSWLAWYQQKPGKAPKLLIYAASSLQSGVPSRFSGSGSGTDFTLTISSLQPEDFATYYCQQGVSFPRTFGGGTKVEIKRTVAAPSVFIFPPSDEQLKSGTASVVCLLNNFYPREAKVQWKVDNALQSGNSQESVTEQDSKDSTYSLSSTLTLSKADYEKHKVYACEVTHQGLSSPVTKSFNRGEC
binding result (Human CEACAM1): no binding (tested: up to 600 and 1200 nM)
binding result (Human CEACAM8): no binding (tested: up to 600 and 1200 nM)

B2: AB0264 F3' CEACAM5 TriNKET (bispecific antibody, human IgG1, kappa)
chain: B1 chain with S210P
heavy: B1 heavy
light: B1 light
binding result (Human CEACAM1): no binding (tested: up to 600 and 1200 nM)
